US20120149881A1

Target: human IgE with the M1′ sequence (long form of membrane IgE) expressed on transduced BJAB or Daudi cells (human), P01854
Assay: cell-based or functional assay

human IgE with the M1′ sequence (long form of membrane IgE) expressed on transduced BJAB or Daudi cells (human), P01854, sequence (P01854 116-546 I515L limits assumed): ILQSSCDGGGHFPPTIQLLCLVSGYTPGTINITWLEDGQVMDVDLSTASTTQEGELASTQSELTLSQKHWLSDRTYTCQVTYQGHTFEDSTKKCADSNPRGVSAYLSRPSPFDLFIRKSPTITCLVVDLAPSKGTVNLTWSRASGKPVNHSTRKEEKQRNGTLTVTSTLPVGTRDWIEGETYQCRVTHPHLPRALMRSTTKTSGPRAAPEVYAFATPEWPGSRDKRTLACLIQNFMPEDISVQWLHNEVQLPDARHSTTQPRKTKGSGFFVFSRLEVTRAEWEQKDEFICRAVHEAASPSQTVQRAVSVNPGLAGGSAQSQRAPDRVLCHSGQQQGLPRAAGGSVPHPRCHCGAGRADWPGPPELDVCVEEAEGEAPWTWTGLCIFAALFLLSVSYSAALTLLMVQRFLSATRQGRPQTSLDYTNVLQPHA

| Binder | apoptosis of Daudi-IgE/Long cells (Annexin V/PI, 72 h), no crosslinker; concentration at which seen | EC50 of ADCC: NK-cell lysis of BJAB cells overexpressing human IgE/M1′ (LDH release) | also measured |
| --- | --- | --- | --- |
| afucosylated humanized anti-IgE/M1′ antibody 47H4 v5 (antibody, V domains shown, here or on the partner: afucosylated Fc carbohydrate (produced in BIOWA cell lines)) VH: EVQLVESGGGLVQPGGSLRLSCAASGFTFSDYGIAWVRQAPGKGLEWVAFISDLAYTIYYADTVTGRFTISRDNSKNTLYLQMNSLRAEDTAVYYCARDNWDAMDYWGQGTLVTVSS VL: DIQMTQSPSSLSASVGDRVTITCRSSQSLVHNNANTYLHWYQQKPGKAPKLLIYKVSNRFSGVPSRFSGSGSGTDFTLTISSLQPEDFATYYCSQNTLVPWTFGQGTKVEIKR | – | 0.83 nM | – |
| humanized anti-IgE/M1′ antibody 47H4.v5 (antibody, V domains shown) VH: EVQLVESGGGLVQPGGSLRLSCAASGFTFSDYGIAWVRQAPGKGLEWVAFISDLAYTIYYADTVTGRFTISRDNSKNTLYLQMNSLRAEDTAVYYCARDNWDAMDYWGQGTLVTVSS VL: DIQMTQSPSSLSASVGDRVTITCRSSQSLVHNNANTYLHWYQQKPGKAPKLLIYKVSNRFSGVPSRFSGSGSGTDFTLTISSLQPEDFATYYCSQNTLVPWTFGQGTKVEIKR | – | 6.6 nM | – |
| murine anti-IgE/M1′ antibody 26A11 (antibody) heavy: EVQLQQSGPELVKPGASVKMSCKASGYTFTDYYMMWVKQSHGKSLEWIGDINPNNYDTSYNQKFKGKATLTVDKSSSTAYIQLNSLTSEDSAVYYCASKAYWGQGTLVTVSAASTTPPSVYPLAPGSAAQTNSMVTLGCLVKGYFPEPVTVTWNSGSLSSGVHTFPAVLQSDLYTLSSSVTVPSSTWPSETVTCNVAHPASSTKVDKKIVPRDCGCKPCICTVPEVSSVFIFPPKPKDVLTITLTPKVTCVVVDISKDDPEVQFSWFVDDVEVHTAQTQPREEQFNSTFRSVSELPIMHQDWLNGKEFKCRVNSAAFPAPIEKTISKTKGRPKAPQVYTIPPPKEQMAKDKVSLTCMITDFFPEDITVEWQWNGQPAENYKNTQPIMDTDGSYFVYSKLNVQKSNWEAGNTFTCSVLHEGLHNHHTEKSLSHSPGK light: DIQMTQTTSSLSASLGDRVTITCRSSQDISNSLNWYQQKPDGPVKLLIYSTSRLHSGVPSRFSGSGSGTDYSLTISNLEQEDLATYFCQQGHTLPWTFGGGTKVEIKRADAAPTVSIFPPSSEQLTSGGASVVCFLNNFYPKDINVKWKIDGSERQNGVLNSWTDQDSKDSTYSMSSTLTLTKDEYERHNSYTCEATHKTSTSPIVKSFNRNEC | – | – | apoptosis of Daudi-IgE/Long cells, no crosslinker; concentration at which seen: > 0.1 µg/mL; percent apoptosis of Daudi-IgE/Long cells, no crosslinker: 30 to 50% |

Further lines, with some results ahead:

| apoptosis of Daudi-IgE/Long cells (Annexin V/PI, 72 h), no crosslinker; concentration at which seen | EC50 of ADCC: NK-cell lysis of BJAB cells overexpressing human IgE/M1′ (LDH release) | Binder | also measured |
| --- | --- | --- | --- |
| > 10 µg/mL | – | murine anti-IgE/M1′ antibody 7A6 (antibody) heavy: QVQLQQSGAELVRPGASVTLSCKASGYTFIDYEMHWVKQTPVHGLEWIGAIDPETGTTAYNQKFKGKATLTAAKSSSTAYMELRSLTSEDSAVYYCTRLRPHYDYDNAMDSWGQGTTLTVSSASTKGPSVYPLAPGSAAQTNSMVTLGCLVKGYFPEPVTVTWNSGSLSSGVHTFPAVLQSDLYTLSSSVTVPSSTWPSETVTCNVAHPASSTKVDKKIVPRDCGCKPCICTVPEVSSVFIFPPKPKDVLTITLTPKVTCVVVDISKDDPEVQFSWFVDDVEVHTAQTQPREEQFNSTFRSVSELPIMHQDWLNGKEFKCRVNSAAFPAPIEKTISKTKGRPKAPQVYTIPPPKEQMAKDKVSLTCMITDFFPEDITVEWQWNGQPAENYKNTQPIMDTDGSYFVYSKLNVQKSNWEAGNTFTCSVLHEGLHNHHTEKSLSHSPGK light: DIVMSQSPSSLTVSVGEKVTLSCKSSQTLLYSTNQKNYLAWYQQKPGQSPKLLIYWASTRESGVPDRFTGSGSGTDFTLTISSVKAEDLAVYYCQQYYSYPYTFGGGTKVEIKRADAAPTVSIFPPSSEQLTSGGASVVCFLNNFYPKDINVKWKIDGSERQNGVLNSWTDQDSKDSTYSMSSTLTLTKDEYERHNSYTCEATHKTSTSPIVKSFNRNEC | – |
| > 10 µg/mL | – | murine anti-IgE/M1′ antibody 47H4 (antibody) heavy: EVKLVESGGGLVQPGGSRKLSCAASGFTFSDYGMAWVRQAPGKGPEWVAFISDLAYTIYYADTVTGRFTISRENAKNTLYLEMSSLRSEDTALYYCARDNWDAMDYWGQGTSVTVSSAKTTPPSSVYPLAPGSAAQTNSMVTLGCLVKGYFPEPVTVTWNSGSLSSGVHTFPAVLQSDLYTLSSSVTVPSSTWPSETVTCNVAHPASSTKVDKKIVPRDCGCKPCICTVPEVSSVFIFPPKPKDVLTITLTPKVTCVVVDISKDDPEVQFSWFVDDVEVHTAQTQPREEQFNSTFRSVSELPIMHQDWLNGKEFKCRVNSAAFPAPIEKTISKTKGRPKAPQVYTIPPPKEQMAKDKVSLTCMITDFFPEDITVEWQWNGQPAENYKNTQPIMDTDGSYFVYSKLNVQKSNWEAGNTFTCSVLHEGLHNHHTEKSLSHSPGK light: DIVLTQTPLSLPVSLGDQASISCRSSQSLVHNNGNTYLHWYLQKPGQSPKLLIYKVSNRFSGVPDRFSGSGSGTDFTLKISRLEAEDLGVYFCSQNTLVPWTFGGGTKVEIKRADAAPTVSIFPPSSEQLTSGGASVVCFLNNFYPKDINVKWKIDGSERQNGVLNSWTDQDSKDSTYSMSSTLTLTKDEYERHNSYTCEATHKTSTSPIVKSFNRNEC | – |
